What was measured:
ACTR3 = ACTR3 (UniProt P61158); assay: co-IP with anti-FLAG, mass spectrometry; N-FLAG B3GNT2
AHNAK = AHNAK (UniProt Q09666); assay: as above
ATP5F1B = ATP5F1B (UniProt P06576); assay: as above
ENO1 = ENO1 (UniProt P06733); assay: as above
FABP5 = FABP5 (UniProt Q01469); assay: as above
PCMT1 = PCMT1 (UniProt P22061); assay: as above
PPIA = PPIA (UniProt P62937); assay: as above
S100A8 = S100A8 (UniProt P05109); assay: as above
S100A9 = S100A9 (UniProt P06702); assay: as above
SERPINB12 = SERPINB12 (UniProt Q96P63); assay: as above
SPRR2E = SPRR2E (UniProt P22531); assay: as above
Chain of SPRR2E (P22531 whole entry): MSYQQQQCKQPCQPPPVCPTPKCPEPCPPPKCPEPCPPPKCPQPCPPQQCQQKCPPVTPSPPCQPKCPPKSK

SSR1 = SSR1 (UniProt P43307); assay: as above
STRAP = STRAP (UniProt Q9Y3F4); assay: as above
TRIM21 = TRIM21 (UniProt P19474); assay: as above
Chain of TRIM21 (P19474 whole entry): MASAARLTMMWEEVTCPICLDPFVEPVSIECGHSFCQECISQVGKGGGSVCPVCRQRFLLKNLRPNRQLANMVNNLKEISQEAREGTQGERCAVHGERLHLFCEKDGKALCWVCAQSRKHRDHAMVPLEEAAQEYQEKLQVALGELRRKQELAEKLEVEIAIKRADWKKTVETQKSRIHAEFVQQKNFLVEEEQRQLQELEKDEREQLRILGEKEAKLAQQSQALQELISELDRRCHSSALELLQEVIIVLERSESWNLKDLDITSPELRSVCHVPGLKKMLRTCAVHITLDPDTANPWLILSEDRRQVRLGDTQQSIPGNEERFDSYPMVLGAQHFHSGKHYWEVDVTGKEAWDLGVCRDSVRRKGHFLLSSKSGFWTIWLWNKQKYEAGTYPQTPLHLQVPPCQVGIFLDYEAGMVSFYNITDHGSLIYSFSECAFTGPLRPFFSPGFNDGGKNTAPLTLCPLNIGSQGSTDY

UBA52 = UBA52 (UniProt P62987); assay: as above
YWHAZ = YWHAZ (UniProt P63104); assay: as above
EEF2 (human) = EEF2 (human) (UniProt P13639); assay: anti-FLAG co-IP from lysate of N-FLAG B3GNT2 cells, mass spectrometry
ERP29 (human) = ERP29 (human) (UniProt P30040); assay: as above
FBXO6 (human) = FBXO6 (human) (UniProt Q9NRD1); assay: as above
LARP4 (human) = LARP4 (human) (UniProt Q71RC2); assay: as above
PGAM5 (human) = PGAM5 (human) (UniProt Q96HS1); assay: as above
PSMB4 (human) = PSMB4 (human) (UniProt P28070); assay: as above
PSMC2 (human) = PSMC2 (human) (UniProt P35998); assay: as above
STAU1 (human) = STAU1 (human) (UniProt O95793); assay: as above
ZRANB2 (human) = ZRANB2 (human) (UniProt O95218); assay: as above
EIF3A (human) = EIF3A (human) (UniProt Q14152); assay: co-IP with anti-FLAG, C-FLAG B3GNT2, mass spectrometry
GSN (human) = GSN (human) (UniProt P06396); assay: as above
KCTD5 (human) = KCTD5 (human) (UniProt Q9NXV2); assay: as above
Chain of KCTD5 (human) (Q9NXV2 2-234 limits assumed): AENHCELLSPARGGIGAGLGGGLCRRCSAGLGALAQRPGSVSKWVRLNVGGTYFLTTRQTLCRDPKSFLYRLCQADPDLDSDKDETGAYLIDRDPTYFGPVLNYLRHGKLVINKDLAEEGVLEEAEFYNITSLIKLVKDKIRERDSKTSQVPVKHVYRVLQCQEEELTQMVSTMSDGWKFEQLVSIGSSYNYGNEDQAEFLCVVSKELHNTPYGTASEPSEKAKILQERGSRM

LCN1 (human) = LCN1 (human) (UniProt P31025); assay: as above
PLOD1 (human) = PLOD1 (human) (UniProt Q02809); assay: as above
PRRC2C (human) = PRRC2C (human) (UniProt Q9Y520); assay: as above
PURA (human) = PURA (human) (UniProt Q00577); assay: as above
Chain of PURA (human) (Q00577 2-322 limits assumed): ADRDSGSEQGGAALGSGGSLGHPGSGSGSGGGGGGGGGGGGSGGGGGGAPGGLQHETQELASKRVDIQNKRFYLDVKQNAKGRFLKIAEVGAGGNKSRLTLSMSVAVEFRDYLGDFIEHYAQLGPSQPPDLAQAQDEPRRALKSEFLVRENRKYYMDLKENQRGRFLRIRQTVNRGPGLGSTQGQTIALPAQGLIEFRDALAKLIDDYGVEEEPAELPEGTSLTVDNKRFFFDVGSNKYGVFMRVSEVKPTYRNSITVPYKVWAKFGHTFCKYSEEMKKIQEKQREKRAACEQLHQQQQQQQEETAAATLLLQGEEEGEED

RPL28 (human) = RPL28 (human) (UniProt P46779); assay: as above
RPL8 (human) = RPL8 (human) (UniProt P62917); assay: as above
RPS27A (human) = RPS27A (human) (UniProt P62979); assay: as above
RUVBL2 (human) = RUVBL2 (human) (UniProt Q9Y230); assay: as above
SYNM (human) = SYNM (human) (UniProt O15061); assay: as above
Chain of SYNM (human) (O15061 whole entry): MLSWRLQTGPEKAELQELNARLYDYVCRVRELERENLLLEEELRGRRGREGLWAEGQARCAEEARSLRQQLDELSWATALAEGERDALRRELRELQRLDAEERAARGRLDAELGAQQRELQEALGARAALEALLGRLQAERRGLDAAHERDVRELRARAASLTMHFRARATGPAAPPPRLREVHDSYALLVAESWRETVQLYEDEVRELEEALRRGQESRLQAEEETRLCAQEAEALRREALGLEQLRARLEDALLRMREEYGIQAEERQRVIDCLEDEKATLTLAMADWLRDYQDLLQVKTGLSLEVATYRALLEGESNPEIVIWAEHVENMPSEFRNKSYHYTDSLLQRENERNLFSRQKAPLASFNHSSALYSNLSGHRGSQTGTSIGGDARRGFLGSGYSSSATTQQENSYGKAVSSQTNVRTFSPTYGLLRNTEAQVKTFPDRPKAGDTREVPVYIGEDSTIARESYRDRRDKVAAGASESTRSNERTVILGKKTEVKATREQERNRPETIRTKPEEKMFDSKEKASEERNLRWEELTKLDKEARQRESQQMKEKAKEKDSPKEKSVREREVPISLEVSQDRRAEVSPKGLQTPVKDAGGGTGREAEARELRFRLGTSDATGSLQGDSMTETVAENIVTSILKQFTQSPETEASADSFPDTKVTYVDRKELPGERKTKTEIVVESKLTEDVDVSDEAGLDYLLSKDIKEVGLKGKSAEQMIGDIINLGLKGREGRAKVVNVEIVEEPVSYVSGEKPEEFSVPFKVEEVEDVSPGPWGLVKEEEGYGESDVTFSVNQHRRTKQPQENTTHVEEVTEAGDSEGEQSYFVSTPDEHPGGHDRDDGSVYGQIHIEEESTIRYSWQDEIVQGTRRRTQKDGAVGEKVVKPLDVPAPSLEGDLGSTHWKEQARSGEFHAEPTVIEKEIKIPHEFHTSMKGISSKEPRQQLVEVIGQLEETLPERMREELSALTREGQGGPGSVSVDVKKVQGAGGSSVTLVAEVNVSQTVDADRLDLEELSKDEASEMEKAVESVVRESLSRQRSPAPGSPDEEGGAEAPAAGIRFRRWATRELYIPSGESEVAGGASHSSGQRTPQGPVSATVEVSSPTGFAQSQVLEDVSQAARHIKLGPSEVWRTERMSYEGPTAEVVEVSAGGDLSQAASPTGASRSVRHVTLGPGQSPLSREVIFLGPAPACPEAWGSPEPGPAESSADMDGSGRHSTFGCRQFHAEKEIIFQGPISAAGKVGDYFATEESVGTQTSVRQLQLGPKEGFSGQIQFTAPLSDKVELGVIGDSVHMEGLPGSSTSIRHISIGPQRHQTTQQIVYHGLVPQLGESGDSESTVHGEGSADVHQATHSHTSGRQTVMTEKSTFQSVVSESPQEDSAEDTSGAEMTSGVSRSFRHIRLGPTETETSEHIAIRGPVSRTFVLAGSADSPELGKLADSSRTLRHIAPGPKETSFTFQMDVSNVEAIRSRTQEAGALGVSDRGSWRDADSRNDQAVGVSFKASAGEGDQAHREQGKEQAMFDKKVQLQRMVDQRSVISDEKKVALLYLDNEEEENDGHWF

TM9SF1 (human) = TM9SF1 (human) (UniProt O15321); assay: as above
TPM3 (human) = TPM3 (human) (UniProt P06753); assay: as above
Chain of TPM3 (human) (P06753 other isoform, or with tags, fused parts or gaps limits assumed): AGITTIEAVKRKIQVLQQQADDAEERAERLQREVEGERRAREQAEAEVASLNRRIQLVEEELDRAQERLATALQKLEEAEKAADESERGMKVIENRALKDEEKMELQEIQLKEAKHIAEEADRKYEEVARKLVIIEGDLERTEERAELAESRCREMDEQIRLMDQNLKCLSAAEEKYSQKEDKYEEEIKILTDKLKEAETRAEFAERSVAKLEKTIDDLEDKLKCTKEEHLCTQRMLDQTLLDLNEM

XPO1 (human) = XPO1 (human) (UniProt O14980); assay: as above
Chain of XPO1 (human) (O14980 whole entry): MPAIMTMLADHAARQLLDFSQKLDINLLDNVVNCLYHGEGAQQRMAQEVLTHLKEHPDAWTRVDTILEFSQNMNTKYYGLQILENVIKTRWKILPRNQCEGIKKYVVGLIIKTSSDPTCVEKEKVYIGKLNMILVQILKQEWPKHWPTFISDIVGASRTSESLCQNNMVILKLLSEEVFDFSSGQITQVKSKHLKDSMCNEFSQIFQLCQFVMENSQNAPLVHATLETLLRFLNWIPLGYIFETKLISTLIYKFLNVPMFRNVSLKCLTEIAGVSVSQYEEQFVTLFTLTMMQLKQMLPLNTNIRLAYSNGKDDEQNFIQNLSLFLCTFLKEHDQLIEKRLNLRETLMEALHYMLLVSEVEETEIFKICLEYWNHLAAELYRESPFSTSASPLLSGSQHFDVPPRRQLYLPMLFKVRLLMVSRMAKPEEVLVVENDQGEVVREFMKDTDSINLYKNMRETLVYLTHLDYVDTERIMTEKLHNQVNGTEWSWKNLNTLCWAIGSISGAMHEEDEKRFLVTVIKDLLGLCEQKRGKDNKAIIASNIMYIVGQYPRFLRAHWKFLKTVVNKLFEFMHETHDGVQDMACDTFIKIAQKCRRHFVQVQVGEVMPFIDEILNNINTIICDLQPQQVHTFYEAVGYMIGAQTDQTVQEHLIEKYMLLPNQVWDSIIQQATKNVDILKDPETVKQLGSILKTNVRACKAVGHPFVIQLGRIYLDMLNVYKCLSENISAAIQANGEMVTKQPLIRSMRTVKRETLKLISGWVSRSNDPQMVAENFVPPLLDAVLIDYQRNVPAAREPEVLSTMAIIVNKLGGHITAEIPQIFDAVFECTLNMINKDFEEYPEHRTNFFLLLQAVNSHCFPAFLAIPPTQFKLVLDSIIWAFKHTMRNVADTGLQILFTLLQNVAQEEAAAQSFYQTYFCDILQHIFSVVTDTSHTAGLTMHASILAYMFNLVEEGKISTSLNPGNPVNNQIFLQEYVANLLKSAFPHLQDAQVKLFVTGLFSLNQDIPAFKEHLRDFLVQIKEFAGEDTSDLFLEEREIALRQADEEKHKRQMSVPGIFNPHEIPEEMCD

Chain of PCMT1 (P22061 2-227 limits assumed): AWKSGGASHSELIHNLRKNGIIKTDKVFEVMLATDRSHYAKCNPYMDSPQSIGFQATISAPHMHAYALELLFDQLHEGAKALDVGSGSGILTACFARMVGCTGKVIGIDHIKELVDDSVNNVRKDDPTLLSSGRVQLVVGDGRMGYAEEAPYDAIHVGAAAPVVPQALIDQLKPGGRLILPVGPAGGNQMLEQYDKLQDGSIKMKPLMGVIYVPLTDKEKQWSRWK
Chain of ATP5F1B (P06576 48-529 limits assumed): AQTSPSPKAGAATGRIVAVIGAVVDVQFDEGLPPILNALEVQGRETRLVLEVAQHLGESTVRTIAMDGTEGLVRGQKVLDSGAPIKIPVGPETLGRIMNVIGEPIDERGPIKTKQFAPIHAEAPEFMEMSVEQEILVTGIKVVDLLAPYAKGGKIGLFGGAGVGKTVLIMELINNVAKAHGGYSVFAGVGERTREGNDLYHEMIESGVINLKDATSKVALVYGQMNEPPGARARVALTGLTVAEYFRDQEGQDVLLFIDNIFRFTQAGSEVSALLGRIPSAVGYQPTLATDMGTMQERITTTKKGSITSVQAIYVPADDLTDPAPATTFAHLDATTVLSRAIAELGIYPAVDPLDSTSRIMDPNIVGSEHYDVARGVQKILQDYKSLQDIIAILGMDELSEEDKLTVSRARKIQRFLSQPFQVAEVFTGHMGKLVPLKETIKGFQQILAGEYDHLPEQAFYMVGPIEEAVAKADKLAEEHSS
Chain of FABP5 (Q01469 2-135 limits assumed): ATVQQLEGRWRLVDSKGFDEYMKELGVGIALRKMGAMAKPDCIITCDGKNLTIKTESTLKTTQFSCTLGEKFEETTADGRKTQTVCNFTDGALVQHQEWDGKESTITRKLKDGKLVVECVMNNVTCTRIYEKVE
Chain of S100A8 (P05109 whole entry): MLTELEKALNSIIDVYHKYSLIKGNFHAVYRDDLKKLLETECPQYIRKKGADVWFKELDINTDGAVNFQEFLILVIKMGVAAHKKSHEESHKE

Substance: N-terminal FLAG tagged B3GNT2 (from UniProt Q9NY97 1-397) (enzyme)
- co-IP mass spectrometry count (ACTR3): 3
- co-IP mass spectrometry count (AHNAK): 3
- co-IP mass spectrometry count (ATP5F1B): 2
- co-IP mass spectrometry count (ENO1): 5
- co-IP mass spectrometry count (FABP5): 6
- co-IP mass spectrometry count (PCMT1): 4
- co-IP mass spectrometry count (PPIA): 6
- co-IP mass spectrometry count (S100A8): 15
- co-IP mass spectrometry count (S100A9): 18
- co-IP mass spectrometry count (SERPINB12): 4
- co-IP mass spectrometry count (SPRR2E): 16
- co-IP mass spectrometry count (SSR1): 3
- co-IP mass spectrometry count (STRAP): 4
- co-IP mass spectrometry count (TRIM21): 6
- co-IP mass spectrometry count (UBA52): 4
- co-IP mass spectrometry count (YWHAZ): 2
- co-IP mass spectrometry count (EEF2 (human)): 3
- co-IP mass spectrometry count (ERP29 (human)): 2
- co-IP mass spectrometry count (FBXO6 (human)): 4
- co-IP mass spectrometry count (LARP4 (human)): 0
- co-IP mass spectrometry count (PGAM5 (human)): 4
- co-IP mass spectrometry count (PSMB4 (human)): 2
- co-IP mass spectrometry count (PSMC2 (human)): 2
- co-IP mass spectrometry count (STAU1 (human)): 2
- co-IP mass spectrometry count (ZRANB2 (human)): 5

Substance: C-terminal FLAG tagged B3GNT2 (from UniProt Q9NY97 1-397) (enzyme)
- co-IP mass spectrometry count (EIF3A (human)): 3
- co-IP mass spectrometry count (GSN (human)): 3
- co-IP mass spectrometry count (KCTD5 (human)): 3
- co-IP mass spectrometry count (LCN1 (human)): 11
- co-IP/MS count, C-term flag (PLOD1 (human)): 4
- co-IP/MS count, C-term flag (PRRC2C (human)): 15
- co-IP/MS count, C-term flag (PURA (human)): 3
- co-IP mass spectrometry count (RPL28 (human)): 16
- co-IP mass spectrometry count (RPL8 (human)): 15
- co-IP mass spectrometry count (RPS27A (human)): 27
- co-IP/MS count, C-term flag (RUVBL2 (human)): 4
- co-IP mass spectrometry count (SYNM (human)): 5
- co-IP/MS count, C-term flag (TM9SF1 (human)): 4
- co-IP mass spectrometry count (TPM3 (human)): 5
- co-IP/MS count, C-term flag (XPO1 (human)): 2

— patent US20240261333A1, “NOVEL TARGETS FOR ENHANCING ANTI-TUMOR IMMUNITY” (THE BROAD INSTITUTE, INC., priority 2021, published 2024)
